Measurements taken from patent US20250145690A1 (US Dept. of Health and Human Services, published 2025).

Tests used:
Test in all cases: bead flow cytometry, AUC minus CD4
[1] = target: T1, HCoV-229E spike protein (Sino Biological 40605-V08B) (HCoV-229E, UniProt P15423 16-1115)
T1 sequence: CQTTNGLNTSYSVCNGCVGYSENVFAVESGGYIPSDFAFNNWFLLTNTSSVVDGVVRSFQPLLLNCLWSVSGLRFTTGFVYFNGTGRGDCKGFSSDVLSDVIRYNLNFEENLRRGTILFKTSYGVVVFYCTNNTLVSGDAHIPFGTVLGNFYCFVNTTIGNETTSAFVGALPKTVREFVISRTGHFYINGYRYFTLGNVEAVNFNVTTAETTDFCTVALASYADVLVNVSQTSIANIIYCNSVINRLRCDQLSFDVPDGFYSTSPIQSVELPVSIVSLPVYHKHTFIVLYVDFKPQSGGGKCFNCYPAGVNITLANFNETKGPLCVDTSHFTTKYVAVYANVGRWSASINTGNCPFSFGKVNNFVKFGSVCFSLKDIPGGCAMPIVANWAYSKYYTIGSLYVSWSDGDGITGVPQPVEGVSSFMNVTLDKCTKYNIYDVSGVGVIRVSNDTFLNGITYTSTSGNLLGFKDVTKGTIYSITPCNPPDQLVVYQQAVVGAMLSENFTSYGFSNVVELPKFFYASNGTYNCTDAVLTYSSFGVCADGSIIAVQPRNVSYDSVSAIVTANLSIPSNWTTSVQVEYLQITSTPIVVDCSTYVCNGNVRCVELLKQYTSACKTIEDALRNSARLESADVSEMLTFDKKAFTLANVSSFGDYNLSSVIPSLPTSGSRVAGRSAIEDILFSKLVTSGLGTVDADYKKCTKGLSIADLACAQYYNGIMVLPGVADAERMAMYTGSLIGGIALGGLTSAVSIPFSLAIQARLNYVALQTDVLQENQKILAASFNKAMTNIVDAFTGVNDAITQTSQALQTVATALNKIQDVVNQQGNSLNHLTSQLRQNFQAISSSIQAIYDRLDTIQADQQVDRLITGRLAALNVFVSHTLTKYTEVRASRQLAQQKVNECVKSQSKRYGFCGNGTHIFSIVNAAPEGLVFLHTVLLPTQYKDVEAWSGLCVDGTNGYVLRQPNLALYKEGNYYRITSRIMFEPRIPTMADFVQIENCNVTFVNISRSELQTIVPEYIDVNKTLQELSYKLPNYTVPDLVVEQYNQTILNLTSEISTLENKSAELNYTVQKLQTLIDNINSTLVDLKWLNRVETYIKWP

[2] = target: T2, HCoV-NL63 spike protein (Sino Biological 40604-V08B) (HCoV-NL63, UniProt Q6Q1S2 19-1296)
T2 sequence: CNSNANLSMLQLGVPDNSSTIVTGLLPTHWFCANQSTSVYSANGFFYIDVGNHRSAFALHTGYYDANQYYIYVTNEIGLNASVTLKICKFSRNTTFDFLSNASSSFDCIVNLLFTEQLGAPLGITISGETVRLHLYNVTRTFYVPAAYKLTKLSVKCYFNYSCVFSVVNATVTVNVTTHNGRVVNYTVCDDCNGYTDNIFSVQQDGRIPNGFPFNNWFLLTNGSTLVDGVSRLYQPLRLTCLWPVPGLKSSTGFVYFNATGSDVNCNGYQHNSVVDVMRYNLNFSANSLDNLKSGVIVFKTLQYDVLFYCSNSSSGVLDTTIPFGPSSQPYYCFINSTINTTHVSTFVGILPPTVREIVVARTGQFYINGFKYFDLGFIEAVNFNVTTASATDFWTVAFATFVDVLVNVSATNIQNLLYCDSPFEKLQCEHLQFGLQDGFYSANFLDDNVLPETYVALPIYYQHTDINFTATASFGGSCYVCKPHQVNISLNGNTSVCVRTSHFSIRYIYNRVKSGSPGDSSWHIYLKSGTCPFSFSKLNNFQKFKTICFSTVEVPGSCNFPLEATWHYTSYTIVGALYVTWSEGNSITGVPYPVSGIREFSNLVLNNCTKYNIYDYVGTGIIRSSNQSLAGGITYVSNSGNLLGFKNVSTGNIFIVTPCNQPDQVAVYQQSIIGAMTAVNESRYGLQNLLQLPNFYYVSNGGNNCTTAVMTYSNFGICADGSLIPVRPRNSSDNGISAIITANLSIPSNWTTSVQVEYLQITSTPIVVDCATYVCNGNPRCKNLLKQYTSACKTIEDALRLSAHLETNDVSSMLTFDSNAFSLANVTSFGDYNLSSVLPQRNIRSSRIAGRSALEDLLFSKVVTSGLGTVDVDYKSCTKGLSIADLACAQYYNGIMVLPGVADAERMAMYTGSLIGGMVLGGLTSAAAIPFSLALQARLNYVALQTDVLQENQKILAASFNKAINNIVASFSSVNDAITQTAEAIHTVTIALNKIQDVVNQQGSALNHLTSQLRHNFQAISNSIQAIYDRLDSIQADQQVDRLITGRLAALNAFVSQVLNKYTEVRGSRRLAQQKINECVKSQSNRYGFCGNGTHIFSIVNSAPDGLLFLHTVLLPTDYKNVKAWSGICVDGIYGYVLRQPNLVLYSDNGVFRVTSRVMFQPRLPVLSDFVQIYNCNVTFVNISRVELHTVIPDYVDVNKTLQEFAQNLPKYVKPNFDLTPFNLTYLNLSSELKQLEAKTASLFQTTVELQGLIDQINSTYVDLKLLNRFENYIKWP

[3] = target: SARS-CoV-2 spike receptor binding domain (RBD), recombinant (SARS-CoV-2, UniProt P0DTC2 319-541)
[4] = target: SARS-CoV-2 spike N-terminal domain (NTD), recombinant (SARS-CoV-2, UniProt P0DTC2 14-305)

Measured: binding result

B1: COV49-03 (antibody, V domains shown)
VH: DVQLLESGGGLVQPGGSRRLSCAASGFTFSNYAMSWVRQAPGKGLEWVSAISGGGATTYYADSVQGRFTMSRDNSNNTLYLQMSSLRAEDTAVYYCTKGAFYDILSSIIVEGDYWGQGTLVTVSS
VL: DVVLTQSPLSLPITLGQPASISCRSSQSLVFSDGNTYLNWFQQRPGQSPRRLIYKVSNRDSGVPDRFSGSGSGTDFTLKISRVEAEDVGVYYCMQGTHWLSITFGQGTRLEIK
no binding (tested: 200 µg/mL): [1] | [2] | [3] | [4]

B2: COV49-05 (antibody, V domains shown)
VH: EVQLLESGGGLAQPGGSLRLSCVASGFSFNDYAMTWVRQAPGKGLEWVSAVSSGGQTTYSTDSVKGRFTISRDNSKNMLYLQMNSLRAEDTAVYYCVKGAFYNILSSIIVEGDYWGQGTLVTVSS
VL: GVVLTQSPLSLPVTLGQPASISCRSSQSLVFSDGNTYLNWFQQRPGQSPRRLIYQVSNRDPGVPDRFSGSGSGTDFTLKISRVEAEDVGVYYCMQGTHWLSITFGQGTRLEIK
no binding (tested: 200 µg/mL): [1] | [2] | [3] | [4]

B3: COV49-04 (antibody, V domains shown)
VH: EVQLLESGGGLVQPGGSLRLSCATSGFTFSSYAMTWVRQAPGKGLEWVSAISGGGATTYSTDSVKGRFTTSRDNSKNTLYLQMNNLRAEDTALYYCAKGAFYNILSSIIVEGDYWGQGTLVTVSS
VL: DVVMTQSPLSLSVTLGQPASISCRSSQSLVFSDGDTYLNWFQQRPGQSPRRLIYRVSNRDSGVPDRFSGSGSGTDFTLKISRVEAEDVGVYYCMQGTHWLSITFGQGTRLDIK
no binding (tested: 200 µg/mL): [1] | [2] | [3] | [4]

B4: COV49-23 (antibody, V domains shown)
VH: EVQLLESGGGLAQPGGSLRISCVASGFSFNDYAMAWVRRAPGKGLEWVSAVSGGGQTTYSTDSVKGRFTTSRDNSKNTLYLQMNGLRAEDTAVYYCVKGAFYNILSSIIVEGDYWGQGALVTVSS
VL: GVVLTQSPLSLPVTLGQPASISCRSSQSLVFSDGNTYLNWFQQRPGQSPRRLIYQVSNRDPGVPDRFSGSGSGTDFTLKISRVEAEDVGVYYCMQGTHWLSITFGQGTRLEIK
no binding (tested: 200 µg/mL): [1] | [2] | [3] | [4]

B5: COV44-56 (antibody, V domains shown)
VH: QVLLVQSGAEVKKPGASVMVSCKASGYILNNYYMHWVRQAPGHGLEWMGIINPSGDGTRYAQKFQGRVTMTRDSSTTSIHMELRRVTSEDTAVYYCARGGSQSAFDMWGQGTVVLVSS
VL: DIVMTQSPRSLPVTPGESASISCRSSQSLLQKNGYNYLDWYVQKPGQSPQLLIYLGSYRASGVPDRISGSGSGTDFTLKINRVEAEDVGVYYCLQAQQAPPLYTFGQGTKLQIE
no binding (tested: 200 µg/mL): [1] | [2] | [3] | [4]

B6: COV93-03 (antibody, V domains shown)
VH: QLQLVQSGAEVKKPGASVKLSCKASGNTFTSHYIHWVRQAPGQGPEWMGIINPSGSGTRYAQKFQGRVTMTRDTSTSTVYMELVSLRFEDTAVYYCAGDYYLDYWGQGTLVTVSS
VL: EFVLTQSPGTLSLSPGERATLSCRASQSVTSNYLAWYQQKPGQAPRLLIFGASSRATGIPDRFSGSGSGTDFTLTISRLEPEDFAVYYCQQYGSSPPMYTFGPGTKVEIK
no binding (tested: 200 µg/mL): [1] | [2] | [3] | [4]

B7: COV44-54 (antibody, V domains shown)
VH: QVQLVQSGAEVKKPGASVRVSCKTSGYTFTNYYMTWVRQAPGQGLQWVGLISPSAGYTAYAQMFQGRVTMTSDTSTSTVYMQLSSLRSEDTAIYYCTRVAVAGPNDYWGQGTLVTVSS
VL: EIVLTQSPGTLSLSPGERATLSCRASQSISGSYLAWYQQKPGQAPRLVIYAASSRATGIPDRFSGSGSGTDFILTISRLEAEDFAVYFCQHYRSSPPLWTFGQGTKVEIR
no binding (tested: 200 µg/mL): [1] | [2] | [3] | [4]

B8: COV49-51 (antibody, V domains shown)
VH: QVQLVQSGAEAKKPGASVKVSCKASGYSFTSYHMHWVRQAPGQGLEWMGIINPNGGTTTYAPKFQGRVTMTSDTSTSTVYMELTSLRSEDTAVYYCSTVVGALWGQGTLVIVSS
VL: IVLTQSPGTLSLSPGERATLSCRASQSVRSNNYLAWYQQKPGQAPRLLIYGASTRATGIPDRFSGSGSGTDFTLTISRLEPEDFAVYYCQQYGSSPLTFGGGTRVEIK
no binding (tested: 200 µg/mL): [1] | [2] | [3] | [4]
